Test results from patent US20250381223A1 (UTC THERAPEUTICS SHANGHAI, published 2025).
Blank lines part the entries; values can stand above or below the binder they belong to.

Tests used:
CD40-Fc [1] = target: T1, CD40-Fc (human, UniProt P25942); experiment: flow cytometry of T cells co-electroporated with 15 µg diabody mRNA and 2 µg M12 CAR mRNA; CD40-Fc + PE-anti-Fc; E1 without mRNA: 0.56
T1 construct: part fused to Fc; staining reagent of the flow cytometry; also called recombinant human CD40-Fc antigen protein

CD40-Fc [2] = target: T1, CD40-Fc; experiment: flow cytometry of T cells co-electroporated with 15 µg diabody mRNA and 0.5 µg 4D5.BBZ mRNA; CD40-Fc + PE-anti-IgG-Fc; E1 without mRNA: 0.27
[3] = target: T2, mesothelin-Fc recombinant protein (human, UniProt Q13421 296-580, limits assumed); experiment: flow cytometry, T cells with CAR mRNA, mesothelin-Fc + PE-anti-IgG-Fc; Control 0.97
T2 construct: construct not described; also called Meso-Fc; not shown: Fc part
T2 sequence (Q13421 other isoform, or with tags, fused parts or gaps limits assumed): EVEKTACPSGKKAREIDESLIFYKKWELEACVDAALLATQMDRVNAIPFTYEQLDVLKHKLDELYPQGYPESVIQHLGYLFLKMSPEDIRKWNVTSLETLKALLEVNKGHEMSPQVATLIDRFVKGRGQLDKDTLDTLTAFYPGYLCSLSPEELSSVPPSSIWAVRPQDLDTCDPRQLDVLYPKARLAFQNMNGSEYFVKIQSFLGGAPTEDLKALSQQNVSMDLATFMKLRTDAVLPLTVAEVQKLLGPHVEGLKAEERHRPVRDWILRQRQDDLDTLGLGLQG
Experimental: (§1) Mesothelin CAR mRNA obtained in Example 26 above was introduced into A549 tumor cells and T cells by electroporation, and the procedures are as follows: A549 tumor cells and T cells were collected and washed 3 times with the Opti-MEM medium. The cell pellet was resuspended in the Opti-MEM medium and the cell concentration was adjusted to 1×10e7 cells/mL. 10 μg of RNA was aliquoted into 1.5-mL EP tubes, 100 μL of T cells or A549 cells were added, followed by mixing well. 100 μL of cells mixed with RNA were added to the BTX electroporation cuvette and slight tapping was performed to avoid air bubbles. Electroporation was performed using a BTX instrument under the following parameters: for T cells: 500 V voltage, 0.7 ms; for A549 tumor cells: 300 V voltage, 0.5 ms. The cells were then transferred to a pre-warmed medium and cultured at 37° C. The binding of mesothelin CART cells to the mesothelin-Fc recombinant protein was determined by FACS staining. […] T cells without CAR molecules served as the control (“Mock”).

[4] = target: T2, mesothelin-Fc recombinant protein; experiment: flow cytometry, T cells with CAR mRNA, mesothelin-Fc + PE-anti-IgG-Fc; Control 0.63
Experimental: as §1

percent of cells in the gate [3]: 84.1%
B3: anti-mesothelin scFv-M32 (scFv)
scFv: DIRMTQSPSSLSASVGDRVTVTCQASEDINNSLNWYQQKPGKAPQLLIYDASDLETGVPSRFSGRGSGRDFTLTISSLQPEDFATYYCQQLNSYPLTFGGGTKLEIKGGGGSGGGGSGGGGSQVQLVQSGAEVKKPGASVKVSCKASGFTFIGYYLHWVRQAPGQGLEWMGIINPSGGRTSMAQKFQGRVSMTTDTSTGTVYLDLGRLGSDDTAVYYCARADNWNAGSMDVWGNGTTVTVSS
notes: On mRNA-electroporated T cells as CAR

percent of cells in the gate [3]: 67.9%
B6: anti-mesothelin scFv-M31 (scFv)
scFv: QSALTQPPSASGSPGQSVTISCTGTSSDIGGYNSVSWYQQHPGKAPKLIIYGVSRRPSGVPDRFSGSKSANTASLTVSGLQAVDEADYYCSSYGGSNNLLFGGGTKLTVLGGGGSGGGGSGGGGSEVHLVESGGGLAQPGGSLRLSCAASGFSFSSSWMAWVRQAPGKGLEWVANIKQDGSSQYYVDSVKGRFTISRDNAKNSLSLQMNSLRAEDTAVYYCARDIWYSIDYWGQGTLVTVSS
notes: as for B3

percent of cells in the gate [3]: 82.8%
B7: anti-mesothelin scFv-M28 (scFv)
scFv: QSALTQPPSASGSPGQSVTISCSGTSSDVGGYNFVSWYQHHPGKAPKLMIYEVSKRPSGVPDRFSGSKSGNTASLTVSGLQAEDEADYYCSSYAGRNNPYLFGTGTKLTVLGGGGSGGGGSGGGGSQLQLQESGAEVKKPGSSVKVSCKASGGTFSSYAISWVRQAPGQGLEWMGGIIPIFGTANYAQKFQGRVTITADESTSTAYMELSSLRSEDTAVYYCARDLGGYSYGHGLDYWGQGTLVTVSS
notes: as for B3

percent of cells in the gate [3]: 74.2%
B8: anti-mesothelin scFv-M37 (scFv)
scFv: DIVMTQTPSSLSASVGDRVTITCRASQGISNYLAWFQQKPGKAPKPLIYAASSLQSGVPSKFSGSGSGTDFTLTISNLQPEDFATYICQQYSSYPITFGQGTRLEIKGGGGSGGGGSGGGGSQLQLQESGPGLVKPSETLSLTCAVSGGSISPYYWTWIRQSPGKAMEWMGYIHYSGRTNYNPSLESRATFSVDTSKNQISLKLNSVTAADTAVYYCTKVGDPGLFDYWGPGTLVTVSS
notes: as for B3

percent of cells in the gate [3]: 76.3%
B10: anti-mesothelin scFv-M27 (scFv)
scFv: EIVLTQSPGTLSLSPGERATLSCRASQPIVASHLAWYQHKPGQAPRLLIYGASTRAAGIPDRFSGSGSGTDFTLTISRLEPEDFAVYFCQQYGISPFTFGPGTKVDIKGGGGSGGGGSGGGGSQVQLVQSGAEVKKPGESLKISCQGSGYSFTDYWIGWVRQAPGQGLEWMGWITPNNGNTNYAPKFQGRVTLTTDTSTSTAYMELRSLTSDDTAVYFCARRGRNSSGYLYYYSMDVWGQGTTVTVSS
notes: as for B3

The next lines start with the binder.

B1: 8.6 (bispecific antibody)
scFv-G4S-scFv: QVQLVQSGAEVKKPGSSVKVSCKASGGTFSSYAISWVRQAPGQGLEWMGMINPSGGTTSYAQKFQGRVTMTRDTSTSTVYMELSSLRPEDTAVYYCARGFRMDQWGQGTLVTVSSGGGGSGGGGSGGGGSQSALTQPPSASGSPGQSVTISCTGTSSDVGAYNFVSWYQQHPGNAPKLIIYDVRKRPSGIPDRFSASKSGNTASLTVSGLQADDEADYYCSSYAGNNNLVFGGGTKLTVLGGGGSQVKLQQSGPGLVTPSQSLSITCTVSGFSLSDYGVHWVRQSPGQGLEWLGVIWAGGGTNYNSALMSRKSISKDNSKSQVFLKMNSLQADDTAVYYCARDKGYSYYYSMDYWGQGTTVTVSSGGGGSGGGGSGGGGSDIVLTQSPASLAVSLGQRATISCRASESVEYYVTSLMQWYQQKPGQPPKLLIFAASNVESGVPARFSGSGSGTNFSLNIHPVDEDDVAMYFCQQSRKVPYTFGGGTKLEIK
notes: expressed from mRNA in T cells
% of cells in the positive gate (CD40-Fc [1]): 98.3
% of cells in the positive gate (CD40-Fc [2]): 98.6

B2: anti-mesothelin scFv-M20 (scFv)
scFv: AIQMTQSPSSLSASVGNRVTITCRASQGISSAVAWYQQKPGKPPKLLISYASSLESGVPSRFSGSGSGTDFSLTISSLQPEDFATYFCQQFNSYPLTFGGGTKVEIKGGGGSGGGGSGGGGSQVQLVQSGAEVRKPGESLKISCKGSGYSFRDSWIAWVRQMPGQGLEWMGIIFPGDSNPIYSPSFQGQVTISADTSISTTFLQWRSLKASDSAIYYCARHAAWGAGWFDPWGQGTLVTVSS
notes: as for B3
percent of cells in the gate [3]: 75.6%

B4: anti-mesothelin scFv-M24 (scFv)
scFv: QPVLTQPPSASGTPGQRVTISCSGSSSNIGSNYVYWYQQFPGTAPKLLIYMNNQRPSGVPDRFSGSKSGTSASLAISGLRSEDEADYYCAARDDSLSGYVTFGGGTKLTVLGGGGSGGGGSGGGGSEVHLVESGGGLVQPGGSLRLSCAASGFTFSSYAMSWVRQAPGKGLEWVSAISGSGGSTYYADSVKGRFTISRDNSKNTLYLQMNSLKTEDTAVYYCTRGVATFDYWGQGTLVTVSS
notes: as for B3
percent of cells in the gate [3]: 93.6%

B5: anti-mesothelin scFv-M6 (scFv)
scFv: EIVMTQSPATLSLSPGERATLSCRASQSIGNSLAWYQQKPGQAPRLLIYDVSNRATGIPARFSGSGSGTDFTLTISSLEPEDFAVYYCQHRYSWPLTFGGGTKVEIKGGGGSGGGGSGGGGSQVQLVQSGGGLVKPGGSLRLSCAASGFTFSDYYMSWIRQAPGKGLEWVSYISSSGSTIYYADSVKGRFTISRDNAKNSLYLQMNSLRAEDTAVYYCARDGYRTHNWFDPWGQGTLVTVSS
notes: as for B3
percent of cells in the gate [4]: 83.4%

B9: anti-mesothelin scFv-M22 (scFv)
scFv: QSALTQPASVSGSPGQSITLSCTGTRRDIGGYEYVSWYQQHPGKAPKLLIFSVNNRPSGVSHRFSGSKSGNTASLTISGLQAEDEAAYFCSSYSSRDTLVLFGGGTKLTVLGGGGSGGGGSGGGGSQVQLVQSGAEVKKPGSSVKVSCKASGGTFSSYAISWVRQAPGQGLEWMGGIIPIFGTANYAQKFQGRVTITADESTSTAYMELSSLRSEDTAVYYCASGRSGSYGLYWGQGTLVTVSS
notes: as for B3
percent of cells in the gate [3]: 80%

B11: 4.8 (bispecific antibody)
scFv-G4S-scFv: QSALTQPPSASGSPGQSVTISCTGTSSDVGAYNFVSWYQQHPGNAPKLIIYDVRKRPSGIPDRFSASKSGNTASLTVSGLQADDEADYYCSSYAGNNNLVFGGGTKLTVLGGGGSGGGGSGGGGSQVQLVQSGAEVKKPGSSVKVSCKASGGTFSSYAISWVRQAPGQGLEWMGMINPSGGTTSYAQKFQGRVTMTRDTSTSTVYMELSSLRPEDTAVYYCARGFRMDQWGQGTLVTVSSGGGGSDIQLTQSPSSLSVSVGDRVTISCRASESVEYYVTSLMQWYQQKPGQAPKLLIFAASNVESGVPSRFSGSGSGTNFTLTISSVQEEDFAMYFCQQSRKVPYTFGGGTKLEIKGGGGSGGGGSGGGGSQVKLQESGPGLVKPSETLSITCTVSGFSLSDYGVHWVRQSPGKGLEWLGVIWAGGGTNYNSALMSRKTISKDNSKSQVFLKMSSLTAADTAVYYCARDKGYSYYYSMDYWGQGTTVTVSS
notes: as for B1
% of cells in the positive gate (CD40-Fc [1]): 88.5
% of cells in the positive gate (CD40-Fc [2]): 90.2

B12: 4.7 (bispecific antibody)
scFv-G4S-scFv: QSALTQPPSASGSPGQSVTISCTGTSSDVGAYNFVSWYQQHPGNAPKLIIYDVRKRPSGIPDRFSASKSGNTASLTVSGLQADDEADYYCSSYAGNNNLVFGGGTKLTVLGGGGSGGGGSGGGGSQVQLVQSGAEVKKPGSSVKVSCKASGGTFSSYAISWVRQAPGQGLEWMGMINPSGGTTSYAQKFQGRVTMTRDTSTSTVYMELSSLRPEDTAVYYCARGFRMDQWGQGTLVTVSSGGGGSQVKLQESGPGLVKPSETLSITCTVSGFSLSDYGVHWVRQSPGKGLEWLGVIWAGGGTNYNSALMSRKTISKDNSKSQVFLKMSSLTAADTAVYYCARDKGYSYYYSMDYWGQGTTVTVSSGGGGSGGGGSGGGGSDIQLTQSPSSLSVSVGDRVTISCRASESVEYYVTSLMQWYQQKPGQAPKLLIFAASNVESGVPSRFSGSGSGTNFTLTISSVQEEDFAMYFCQQSRKVPYTFGGGTKLEIK
notes: as for B1
% of cells in the positive gate (CD40-Fc [1]): 95.8
% of cells in the positive gate (CD40-Fc [2]): 96.1
